# Columns and labels:
# [1] = biological target: human CD20 (on the human B-cell lymphoma cell line WIL2-S and other CD20+ human B-cell lines) (human) (UniProt P11836); assay: cell-based or functional assay
# [2] = biological target: monkey CD20 (on monkey peripheral blood cells) (monkey) (UniProt M4ZHZ6); assay: flow cytometry on monkey peripheral blood, N = 3, mean (SD 3.3); control column 0.2 (0.1)
# UniProt M4ZHZ6, sequence (M4ZHZ6 entry or part of it limits assumed): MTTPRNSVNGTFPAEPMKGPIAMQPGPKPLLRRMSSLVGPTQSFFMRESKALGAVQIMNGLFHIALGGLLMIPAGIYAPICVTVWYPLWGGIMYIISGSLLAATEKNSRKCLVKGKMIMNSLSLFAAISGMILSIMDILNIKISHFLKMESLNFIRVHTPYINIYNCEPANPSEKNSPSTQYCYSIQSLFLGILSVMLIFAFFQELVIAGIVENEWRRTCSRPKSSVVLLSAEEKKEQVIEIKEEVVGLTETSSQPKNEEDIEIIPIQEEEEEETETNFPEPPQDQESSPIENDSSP
# UniProt P11836, sequence (P11836 whole entry): as the sequence (M4ZHZ6 entry or part of it limits assumed) above, with P25S, L31F, A51T, V157A, R217K, S226N, V227I, V239T counted along it
substance,measurement,setting,value
rituximab (antibody),"apoptosis of Ramos B-cells, annexin V/propidium iodide flow cytometry",[1],60 % cell lysis
same,percent positive staining cells,[2],21.5%

# Source: US20080213273A1
